Experimental data reported in patent publication US20030180295A1, “Angiocidin: a Cys-Ser-Val-Thr-Cys-Gly specific tumor cell adhesion receptor” (Philadelphia Health and Education Corporation, priority 1999, published 2003).

Columns and labels:
[1] = tested on: Bovine aortic endothelial cells (BAEC); assay: ALAMAR BLUE cell viability assay; format: cell-based
Method: Bovine aortic endothelial cells (BAEC), human umbilical vein endothelial cells (HUVEC), fibroblast cells, A549 human lung carcinoma cells (A549), MDA-MB231 human breast carcinoma cells (MB231), MCF7 human breast carcinoma cells (MCF7) were treated with 37 μg/ml of receptor, or buffer alone, for 24 hours. Viability of the cells was measured using the ALAMAR BLUE™ assay, which measures the capacity of cells to metabolize the ALAMAR BLUE™ dye. The ALAMAR BLUE™ assay (available from Biosource International, Camarillo, Calif.) quantitatively measures the proliferation of cell lines and can establish the relative cytotoxicity of chemical agents. […] Data can be collected using either fluorescence-based instrumentation (530-560 nm excitation wavelength and 590 nm emission wavelength) or absorbance-based instrumentation (570 nm and 600 nm).
BAEC and BSM cells were treated with increasing concentrations of angiocidin (0, 0.625, 1.25, 2.5, 5, 15, 26 and 37 μg/ml) for 24 hours. Cell viability was measured using the ALAMAR BLUE Tm assay. […]
Bovine aortic endothelial cells (BAEC) were cultured overnight in serum-free media containing either 37 μg/ml his-tagged angiocidin or his-tagged GST. […] Viability was measured by the ALAMAR BLUE™ assay. […]
The endothelial cells (BAEC) were incubated overnight 37 μg/ml of the angiocidin, fragments, and GST. Viability was measured using the ALAMAR BLUE™ assay.

TSP-1 = TSP-1 (Homo sapiens, UniProt P07996); assay: Optical binding of angiocidin fragments to TSP-1 derivatized cuvette; conditions: test proteins at 10 nm in PBS buffer
Chain of TSP-1 (P07996 19-1170): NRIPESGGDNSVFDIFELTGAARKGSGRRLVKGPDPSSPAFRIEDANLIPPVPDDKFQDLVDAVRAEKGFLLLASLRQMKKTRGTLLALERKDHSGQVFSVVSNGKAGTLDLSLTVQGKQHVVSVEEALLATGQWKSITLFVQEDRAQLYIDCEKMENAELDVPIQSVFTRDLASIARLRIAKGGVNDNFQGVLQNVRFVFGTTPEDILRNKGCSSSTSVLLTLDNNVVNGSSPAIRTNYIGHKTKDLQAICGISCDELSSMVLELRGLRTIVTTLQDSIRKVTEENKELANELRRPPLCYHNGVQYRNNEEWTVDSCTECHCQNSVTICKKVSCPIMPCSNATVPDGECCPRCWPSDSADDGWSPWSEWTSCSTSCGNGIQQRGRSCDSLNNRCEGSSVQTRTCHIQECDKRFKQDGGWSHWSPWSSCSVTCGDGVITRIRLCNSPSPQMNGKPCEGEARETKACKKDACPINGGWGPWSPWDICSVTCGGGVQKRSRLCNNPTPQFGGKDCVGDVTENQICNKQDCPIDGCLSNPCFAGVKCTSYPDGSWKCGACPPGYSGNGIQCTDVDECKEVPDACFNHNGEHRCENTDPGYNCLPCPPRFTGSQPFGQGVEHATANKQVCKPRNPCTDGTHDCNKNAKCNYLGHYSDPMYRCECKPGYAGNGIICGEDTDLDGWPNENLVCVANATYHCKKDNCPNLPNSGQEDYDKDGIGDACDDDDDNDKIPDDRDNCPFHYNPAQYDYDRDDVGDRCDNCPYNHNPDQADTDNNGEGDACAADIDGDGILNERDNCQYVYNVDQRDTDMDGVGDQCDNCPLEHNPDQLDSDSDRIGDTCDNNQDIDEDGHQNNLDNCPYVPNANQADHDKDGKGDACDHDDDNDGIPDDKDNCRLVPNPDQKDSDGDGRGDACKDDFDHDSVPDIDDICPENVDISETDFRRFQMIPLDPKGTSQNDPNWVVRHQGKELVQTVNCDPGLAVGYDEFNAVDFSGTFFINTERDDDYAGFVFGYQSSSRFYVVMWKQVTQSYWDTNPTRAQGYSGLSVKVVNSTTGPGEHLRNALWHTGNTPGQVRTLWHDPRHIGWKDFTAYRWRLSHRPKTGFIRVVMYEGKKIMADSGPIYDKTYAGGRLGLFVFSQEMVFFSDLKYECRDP
Method: This study examines the amino terminal (Met1-Lys132) and carboxy terminal (IIe248-Lys380) portions of angiocidin (SEQ ID NOS: 24 and 25, respectively). The binding of undenatured recombinant angiocidin fragments was compared to full length angiocidin. GST was used as a negative control. Binding was evaluated using an optical binding method that uses a cuvette to which TSP-1 is covalently coupled. A laser beam was used to detect whether the test protein (fragments, angiocidin, or GST) is bound to the TSP-1 derivatized cuvette surface. The cuvette was derivatized with 1 μg of TSP-1. The cuvette surfaces were blocked with a 1% BSA solution to prevent nonspecific binding. The test proteins were added at a concentration of […] in a PBS buffer.

B1: amino terminal fragment Met1-Lys132: amino terminal fragment Met1-Lys132 of angiocidin (SEQ ID NO: 24) (protein, listed as Homo sapiens)
chain: MVLESTMVCVDNSEYMRNGDFLPTRLQAQQDAVNIVCHSKTRSNPENNVGLITLANDCEVLTTLTPDTGRILSKLHTVQPKGKITFCTGIRVAHLALKHRQGKNHKMRIIAFVGSPVEDNEKDLVKLAKRLK
anti-endothelial activity compared to angiocidin ([1]; 37 μg/ml, overnight): has the same anti-endothelial activity as the full length angiocidin | cell viability, angiocidin and fragments ([1]; Example 27, FIG. 34): inhibited cell viability | binding to TSP-1 derivatized cuvette (TSP-1): show very similar binding at the nano molar range
